In publication doi:10.1101/755504 (bioRxiv, 2019):

Target: T1, His-D6PK (Arabidopsis thaliana, UniProt Q9FG74 1-498)
T1 sequence (looked up): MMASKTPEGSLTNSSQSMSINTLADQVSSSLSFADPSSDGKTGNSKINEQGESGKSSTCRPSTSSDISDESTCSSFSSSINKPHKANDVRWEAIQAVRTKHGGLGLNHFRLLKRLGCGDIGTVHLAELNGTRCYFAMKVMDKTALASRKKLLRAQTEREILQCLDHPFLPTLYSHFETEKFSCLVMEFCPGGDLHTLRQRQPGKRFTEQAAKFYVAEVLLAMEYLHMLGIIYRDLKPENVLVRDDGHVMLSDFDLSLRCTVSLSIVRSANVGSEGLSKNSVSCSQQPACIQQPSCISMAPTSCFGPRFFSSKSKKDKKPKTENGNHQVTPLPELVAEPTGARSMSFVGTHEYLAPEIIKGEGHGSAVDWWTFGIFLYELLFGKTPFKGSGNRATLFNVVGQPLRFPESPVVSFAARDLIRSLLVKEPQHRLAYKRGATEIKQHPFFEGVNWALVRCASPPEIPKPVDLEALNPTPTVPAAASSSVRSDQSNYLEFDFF
Experiment: pull-down

binding result: binds
B1: GST-PDK1.1 (enzyme, Arabidopsis thaliana, UniProt Q9XF67 1-491, looked up)
chain: MLAMEKEFDSKLVLQGNSSNGANVSRSKSFSFKAPQENFTSHDFEFGKIYGVGSYSKVVRAKKKETGTVYALKIMDKKFITKENKTAYVKLERIVLDQLEHPGIIKLYFTFQDTSSLYMALESCEGGELFDQITRKGRLSEDEARFYTAEVVDALEYIHSMGLIHRDIKPENLLLTSDGHIKIADFGSVKPMQDSQITVLPNAASDDKACTFVGTAAYVPPEVLNSSPATFGNDLWALGCTLYQMLSGTSPFKDASEWLIFQRIIARDIKFPNHFSEAARDLIDRLLDTEPSRRPGAGSEGYVALKRHPFFNGVDWKNLRSQTPPKLAPDPASQTASPERDDTHGSPWNLTHIGDSLATQNEGHSAPPTSSESSGSITRLASIDSFDSRWQQFLEPGESVLMISAVKKLQKITSKKVQLILTNKPKLIYVDPSKLVVKGNIIWSDNSNDLNVVVTSPSHFKICTPKKVLSFEDAKQRASVWKKAIETLQNR
